Two substances from PMC11491487 can be followed below.

In test [1] the target is chiRyR-I4657M/G4819E (chiRyR carrying the two resistance mutations) (rabbit) (UniProt P11716). Description: cryo-EM structure; 5 mg/ml purified chiRyR samples with 5 mM caffeine, 2 mM ATP, 100 µM CaM1234, Ca2+, 2% or 5% DMSO, with or without diamide (50 µM FLU or TET; 625 µM CHL); 1 h at room temperature; C4 symmetry in refinement.
For test [2], the target named is chimeric RyR (chiRyR): rabbit RyR1 carrying four Spodoptera frugiperda RyR residues of the diamide-binding pocket (rabbit) (UniProt P11716). The description is as above.

For “chiRyR-I4657M/G4819E (chiRyR carrying the two resistance mutations), P11716 1-5037 (receptor)”, the stoichiometry N (in general, a count of units in the complex or per binding partner) in test [1] was found to be 4.

With “chimeric RyR (chiRyR): rabbit RyR1 carrying four Spodoptera frugiperda RyR residues of the diamide-binding pocket, P11716 1-5037 (receptor)”, the stoichiometry N in test [2] came to 4.
